Where a chain is given by its changes, count along the chain named. Names and notes keep the numbering of the source.
T1: human TIGIT on HEK-Blue reporter cells (human, UniProt Q495A1 22-244)
T1 sequence (looked up): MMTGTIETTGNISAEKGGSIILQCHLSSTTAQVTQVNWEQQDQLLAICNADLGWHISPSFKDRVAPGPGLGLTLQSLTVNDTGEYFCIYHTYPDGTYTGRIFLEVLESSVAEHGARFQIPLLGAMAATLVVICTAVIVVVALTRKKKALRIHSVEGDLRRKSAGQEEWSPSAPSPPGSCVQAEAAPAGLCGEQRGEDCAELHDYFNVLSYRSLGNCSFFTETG

T2: human IL-2 receptor (IL-2Rα, IL-2Rβ, IL-2Rγ) (human, UniProt P01589 22-272; P14784 27-551; P31785 23-369)
T2 sequence (looked up) 1: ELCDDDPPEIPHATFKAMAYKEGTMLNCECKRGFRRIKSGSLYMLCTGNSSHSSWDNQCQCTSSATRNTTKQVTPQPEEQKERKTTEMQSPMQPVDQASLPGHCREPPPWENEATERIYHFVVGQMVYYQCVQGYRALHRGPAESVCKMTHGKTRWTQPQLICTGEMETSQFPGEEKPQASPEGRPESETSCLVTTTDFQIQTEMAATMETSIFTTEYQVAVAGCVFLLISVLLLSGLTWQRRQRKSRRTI
T2 sequence (looked up) 2: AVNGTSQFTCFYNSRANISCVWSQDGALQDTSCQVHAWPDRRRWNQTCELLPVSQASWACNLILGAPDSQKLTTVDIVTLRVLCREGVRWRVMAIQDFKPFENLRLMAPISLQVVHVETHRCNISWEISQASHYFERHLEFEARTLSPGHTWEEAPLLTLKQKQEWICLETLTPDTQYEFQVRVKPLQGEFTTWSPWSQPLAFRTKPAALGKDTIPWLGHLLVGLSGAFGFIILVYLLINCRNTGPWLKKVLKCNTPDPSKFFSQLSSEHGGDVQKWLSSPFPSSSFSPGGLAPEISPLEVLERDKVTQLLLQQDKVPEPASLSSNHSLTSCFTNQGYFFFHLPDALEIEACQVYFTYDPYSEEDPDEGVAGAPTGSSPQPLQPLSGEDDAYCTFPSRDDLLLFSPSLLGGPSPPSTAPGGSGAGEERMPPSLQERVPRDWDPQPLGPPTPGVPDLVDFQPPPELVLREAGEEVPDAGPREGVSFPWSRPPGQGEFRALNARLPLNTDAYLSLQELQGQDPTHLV
T2 sequence (looked up) 3: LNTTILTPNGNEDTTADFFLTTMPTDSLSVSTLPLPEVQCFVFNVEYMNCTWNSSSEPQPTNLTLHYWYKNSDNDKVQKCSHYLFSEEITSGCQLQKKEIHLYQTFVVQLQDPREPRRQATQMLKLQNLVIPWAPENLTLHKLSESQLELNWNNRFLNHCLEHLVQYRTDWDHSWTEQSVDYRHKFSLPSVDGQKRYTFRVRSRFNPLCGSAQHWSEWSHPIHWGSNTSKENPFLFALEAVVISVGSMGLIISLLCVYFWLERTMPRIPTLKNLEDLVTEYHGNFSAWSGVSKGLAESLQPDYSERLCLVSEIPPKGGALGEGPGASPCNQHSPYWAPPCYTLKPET

B1: IL-12(E59A/F60A)/anti-PD-1(N99A) (antibody)
light: not shown
heavy: not shown
heavy (part 1 of 2): QVQLVESGGGVVQPGRSLRLDCKASGITFSNSGMHWVRQAPGKGLEWVAVIWYDGSKRYYADSVKGRFTISRDNSKNTLFLQMNSLRAEDTAVYYCATADDYWGQGTLVTVSSAS
heavy (part 2 of 2): EPKSCDKTHTCPPCPAPEKKGGPSVFLFPPKPKDTLMISRTPEVTCVVVDVSHEDPEVKFNWYVDGVEVHNAKTKPREEQYNSTYRVVSVLTVLHQDWLNGKEYKCKVSNKALPAPIEKTISKAKGQPREPQVYVLPPSREEMTKNQVSLLCLVKGFYPSDIAVEWESNGQPENRYMTWPPVLDSDGSFFLYSKLTVDKSRWQQGNVFSCSVMHEALHNHYTQKSLSLSPGK
B2: IL-12(E59A/F60A)/anti-PD-1(N99M) (antibody)
light: not shown
heavy: not shown
heavy (part 1 of 2): B1 heavy (part 1 of 2) with A99M
heavy (part 2 of 2): B1 heavy (part 2 of 2)
B3: CD155-Fc/IL-12(E59A/F60A) (IL-12 at C'), printed in Table 21 as IL-12(E59A/F60A)/CD155-Fc (Fc fusion)
chain 1: WPPPGTGDVVVQAPTQVPGFLGDSVTLPCYLQVPNMEVTHVSQLTWARHGESGSMAVFHQTQGPSYSESKRLEFVAARLGAELRNASLRMFGLRVEDEGNYTCLFVTFPQGSRSVDIWLRVLAKPQNTAEVQKVQLTGEPVPMARCVSTGGRPPAQITWHSDLGGMPNTSQVPGFLSGTVTVTSLWILVPSSQVDGKNVTCKVEHESFEKPQLLTVNLTVYYPPEVSISGYDNNWYLGQNEATLTCDARSNPEPTGYNWSTTMGPLPPFAVAQGAQLLIRPVDKPINTTLICNVTNALGARQAELTVQVKEGPPSEHSGISRNGGGGSGGGDKTHTCPPCPAPEDEGGPSVFLFPPKPKDTLMISRTPEVTCVVVDVSHEDPEVKFNWYVDGVEVHNAKTKPREEQYNSTYRVVSVLTVLHQDWLNGKEYKCKVSNKALPAPIEKTISKAKGQPREPQVYVYPPSREEMTKNQVSLTCLVKGFYPSDIAVEWESNGQPENNYKTTPPVLDEDGSFALVSKLTVDKSRWQQGNVFSCSVMHEALHNHYTQKSLSLSPGKGGGGSGGGIWELKKDVYVVELDWYPDAPGEMVVLTCDTPEEDGITWTLDQSSEVLGSGKTLTIQVKAAGDAGQYTCHKGGEVLSHSLLLLHKKEDGIWSTDILKDQKEPKNKTFLRCEAKNYSGRFTCWWLTTISTDLTFSVKSSRGSSDPQGVTCGAATLSAERVRGDNKEYEYSVECQEDSACPAAEESLPIEVMVDAVHKLKYENYTSSFFIRDIIKPDPPKNLQLKPLKNSRQVEVSWEYPDTWSTPHSYFSLTFCVQVQGKSKREKKDRVFTDKTSATVICRKNASISVRAQDRYYSSSWSEWASVPCSGGGGSGGGSGGGGSRNLPVATPDPGMFPCLHHSQNLLRAVSNMLQKARQTLEFYPCTSEEIDHEDITKDKTSTVEACLPLELTKNESCLNSRETSFITNGSCLASRKTSFMMALCLSSIYEDLKMYQVEFKTMNAKLLMDPKRQIFLDQNMLAVIDELMQALNFNSETVPQKSSLEEPDFYKTKIKLCILLHAFRIRAVTIDRVMSYLNAS
chain 2: WPPPGTGDVVVQAPTQVPGFLGDSVTLPCYLQVPNMEVTHVSQLTWARHGESGSMAVFHQTQGPSYSESKRLEFVAARLGAELRNASLRMFGLRVEDEGNYTCLFVTFPQGSRSVDIWLRVLAKPQNTAEVQKVQLTGEPVPMARCVSTGGRPPAQITWHSDLGGMPNTSQVPGFLSGTVTVTSLWILVPSSQVDGKNVTCKVEHESFEKPQLLTVNLTVYYPPEVSISGYDNNWYLGQNEATLTCDARSNPEPTGYNWSTTMGPLPPFAVAQGAQLLIRPVDKPINTTLICNVTNALGARQAELTVQVKEGPPSEHSGISRNGGGGSGGGDKTHTCPPCPAPEKKGGPSVFLFPPKPKDTLMISRTPEVTCVVVDVSHEDPEVKFNWYVDGVEVHNAKTKPREEQYNSTYRVVSVLTVLHQDWLNGKEYKCKVSNKALPAPIEKTISKAKGQPREPQVYVLPPSREEMTKNQVSLLCLVKGFYPSDIAVEWESNGQPENRYMTWPPVLDSDGSFFLYSKLTVDKSRWQQGNVFSCSVMHEALHNHYTQKSLSLSPGK
B4: IL-2(L18R/Q22E/R38D/K43E/E61R)/CD155-Fc/IL-12(E59A/F60A) (Fc fusion)
chain 1: B3 chain 1
chain 2: WPPPGTGDVVVQAPTQVPGFLGDSVTLPCYLQVPNMEVTHVSQLTWARHGESGSMAVFHQTQGPSYSESKRLEFVAARLGAELRNASLRMFGLRVEDEGNYTCLFVTFPQGSRSVDIWLRVLAKPQNTAEVQKVQLTGEPVPMARCVSTGGRPPAQITWHSDLGGMPNTSQVPGFLSGTVTVTSLWILVPSSQVDGKNVTCKVEHESFEKPQLLTVNLTVYYPPEVSISGYDNNWYLGQNEATLTCDARSNPEPTGYNWSTTMGPLPPFAVAQGAQLLIRPVDKPINTTLICNVTNALGARQAELTVQVKEGPPSEHSGISRNGGGSGAPTSSSTKKTQLQLEHLRLDLEMILNGINNYKNPKLTDMLTFEFYMPKKATELKHLQCLERELKPLEEVLNLAQSKNFHLRPRDLISNINVIVLELKGSETTFMCEYADETATIVEFLNRWITFCQSIISTLTGGGGSGGGDKTHTCPPCPAPEKKGGPSVFLFPPKPKDTLMISRTPEVTCVVVDVSHEDPEVKFNWYVDGVEVHNAKTKPREEQYNSTYRVVSVLTVLHQDWLNGKEYKCKVSNKALPAPIEKTISKAKGQPREPQVYVLPPSREEMTKNQVSLLCLVKGFYPSDIAVEWESNGQPENRYMTWPPVLDSDGSFFLYSKLTVDKSRWQQGNVFSCSVMHEALHNHYTQKSLSLSPGK
B5: IL-2(L18R/Q22E/R38D/K43E/E61R/Q126T)/CD155-Fc/IL-12(E59A/F60A) (Fc fusion)
chain 1: B3 chain 1
chain 2: B4 chain 2 with Q454T
B6: IL-2(R38D/K43E/E61R/Q126T)/CD155-Fc/IL-12(E59A/F60A) (Fc fusion)
chain 1: B3 chain 1
chain 2: B4 chain 2 with R346L, E350Q, Q454T
B7: IL-2(L18R/Q22E/R38D/K43E/E61R/Q126T/S130R)/CD155-Fc/IL-12(E59A/F60A) (Fc fusion)
chain 1: B3 chain 1
chain 2: B4 chain 2 with Q454T, S458R

Target: human PD-1 on cells (HEK-PD-1 reporter cells; activated PBMC) (human, UniProt Q15116 25-288)
Sequence (Q15116 25-288): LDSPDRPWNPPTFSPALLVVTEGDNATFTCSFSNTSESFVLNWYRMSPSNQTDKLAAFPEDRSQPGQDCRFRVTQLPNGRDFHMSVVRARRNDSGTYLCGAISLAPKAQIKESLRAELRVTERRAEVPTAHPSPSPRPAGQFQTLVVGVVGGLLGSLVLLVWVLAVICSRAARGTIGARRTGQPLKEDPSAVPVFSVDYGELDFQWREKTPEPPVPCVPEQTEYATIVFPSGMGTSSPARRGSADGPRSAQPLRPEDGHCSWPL
Test: cell-based or functional assay

| IFN-γ release, activated PBMC [ng/mL] | IL-12 signal transduction, HEK-IL-12-PD-1 (high) [%] | IL-12 signal transduction, HEK-IL-12-PD-1 (low) [%] | Binder |
| --- | --- | --- | --- |
| 12 | 3 | < 0.2 | B1 |
| 13 | < 0.2 | < 0.2 | B2 |

Target: T3, human IL-12 receptor complex (IL-12Rβ1 and IL-12Rβ2) (human, UniProt P42701 24-662; Q99665 24-862)
T3 sequence (Q99665 24-862, chain 2 of 2, other chains not shown): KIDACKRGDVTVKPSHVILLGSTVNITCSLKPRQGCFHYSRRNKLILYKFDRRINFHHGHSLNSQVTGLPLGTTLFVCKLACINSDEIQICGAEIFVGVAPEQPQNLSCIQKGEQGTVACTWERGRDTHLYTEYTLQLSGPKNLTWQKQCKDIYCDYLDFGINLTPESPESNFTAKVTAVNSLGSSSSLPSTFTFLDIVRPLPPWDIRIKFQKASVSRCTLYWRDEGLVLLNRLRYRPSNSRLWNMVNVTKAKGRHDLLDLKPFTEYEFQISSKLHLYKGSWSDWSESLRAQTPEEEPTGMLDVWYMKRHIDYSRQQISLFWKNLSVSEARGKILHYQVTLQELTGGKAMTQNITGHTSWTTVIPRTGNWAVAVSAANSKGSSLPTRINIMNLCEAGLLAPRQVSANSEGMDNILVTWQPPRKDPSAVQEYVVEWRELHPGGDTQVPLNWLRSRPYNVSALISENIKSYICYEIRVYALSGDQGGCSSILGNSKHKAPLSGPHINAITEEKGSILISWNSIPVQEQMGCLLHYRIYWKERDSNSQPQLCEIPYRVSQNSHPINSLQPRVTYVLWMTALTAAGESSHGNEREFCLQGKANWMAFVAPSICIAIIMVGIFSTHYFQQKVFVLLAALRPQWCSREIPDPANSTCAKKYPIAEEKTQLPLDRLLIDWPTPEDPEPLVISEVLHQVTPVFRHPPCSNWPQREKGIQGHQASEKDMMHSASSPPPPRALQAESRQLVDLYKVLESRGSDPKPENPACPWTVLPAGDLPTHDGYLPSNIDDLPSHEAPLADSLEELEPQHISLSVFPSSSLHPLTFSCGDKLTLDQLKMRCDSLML
Test: cell-based or functional assay

| IL-12 signal transduction, HEK IL-12 [%] | Binder |
| --- | --- |
| < 0.2 | B1 |
| < 0.2 | B2 |

Target: T1, human TIGIT on HEK-Blue reporter cells
Test: cell-based or functional assay

| IL-2 signal transduction, HEK-IL-2-TIGIT [%] | IL-12 signal transduction, HEK-IL-12-TIGIT [%] | Binder |
| --- | --- | --- |
| < 0.1 | 35 | B3 |
| 81 | 42 | B4 |
| 18 | 29 | B5 |
| 28 | 32 | B6 |
| < 0.1 | 24 | B7 |

Target: T3, human IL-12 receptor complex (IL-12Rβ1 …)
Test: cell-based or functional assay
Remark: another data set of the same source

| IL-12 signal transduction, HEK-IL-12 [%] | Binder |
| --- | --- |
| 2 | B3 |
| 1 | B4 |
| < 0.2 | B5 |
| 2 | B6 |
| 3 | B7 |

Target: T2, human IL-2 receptor (IL-2Rα, IL-2Rβ, …)
Test: cell-based or functional assay

| IL-2 signal transduction, HEK-IL-2 [%] | Binder |
| --- | --- |
| < 0.1 | B3 |
| 15 | B4 |
| 5 | B5 |
| 3 | B6 |
| < 0.1 | B7 |

Source: US20240392004A1 (IMMUNOWAKE, published 2024)
